According to article PMC12089923:
pKd: −log10 of the molar value.

Target: AffiTagged cyclicPfAMA1-DI (folded protein 45) (Plasmodium falciparum)
Assay: SPR; AffiTagged cyclicPfAMA1-DI held on a nickel-NTA chip (BI-4500, Biosensing Instrument Inc.), PfRON2_(2021-2059) in solution; kinetic fit, average of three repeats

PfRON2_(2021-2059) peptide (rhoptry neck protein 2 ectodomain peptide) (from UniProt Q8IKV6 2021-2059)
pKd: 6.30
koff: 0.0708 s⁻¹
kon: 142000 M⁻¹ s⁻¹
